Data reported in the Human Domainome abundance scans (Beltran et al. 2025).
± gives the uncertainty stated by the source.

B1: Protein maelstrom homolog, residues 3 to 71; numbered along this chain, Q96JY0 (parent)
chain: NRKASRNAYYFFVQEKIPELRRRGLPVARVADAIPYCSSDWALLREEEKEKYAEMAREWRAAQGKDPGP

Variants of: B1
Test: abundance fitness (aPCA) (normalised: wild type 0, dead -1); higher = more abundant; growth selection in yeast, the domain comes from the species named
Conditions: Homo sapiens

Abundance fitness, by site and new letter:
A56: L -0.296 ± 0.057, V -0.268 ± 0.058, P -0.651 ± 0.1, H -0.087 ± 0.042, E -0.101 ± 0.071, Y 0.208 ± 0.14, C 0.027 ± 0.084, F 0.124 ± 0.13, W -0.236 ± 0.05, G -0.302 ± 0.045, N -0.16 ± 0.13
Q63: W -0.37 ± 0.091, S 0.091 ± 0.057, E -0.046 ± 0.062, L -0.321 ± 0.051, V -0.089 ± 0.059, P -0.08 ± 0.067, K -0.019 ± 0.071, H -0.31 ± 0.13, D -0.121 ± 0.13, Y -0.242 ± 0.16, F -0.202 ± 0.16, R 0.054 ± 0.042, N 0.023 ± 0.083, C -0.255 ± 0.13, G 0.126 ± 0.043, A -0.018 ± 0.066
K51: R -0.378 ± 0.43, P -0.453 ± 0.46
E48: D 0.06 ± 0.2
L44: V -0.156 ± 0.069, T -0.227 ± 0.051, Y -1.09 ± 0.25, S -0.205 ± 0.067
A53: Q -0.194 ± 0.11, T -0.15 ± 0.1, H 0.037 ± 0.18, D -0.082 ± 0.24, G -0.106 ± 0.052, V -0.006 ± 0.062, Y 0.265 ± 0.44, S 0.082 ± 0.087, C 0.043 ± 0.1, E 0.13 ± 0.075, I -0.263 ± 0.22, W -0.097 ± 0.057, R 0.035 ± 0.045, N -0.144 ± 0.21, P -0.589 ± 0.13, M -0.322 ± 0.1, K -0.226 ± 0.11
E46: P 0.066 ± 0.1, K 0.012 ± 0.11, Y -0.339 ± 0.14, V -0.38 ± 0.077, M -0.134 ± 0.097, T -0.188 ± 0.071, F -0.215 ± 0.12, G -0.031 ± 0.055, R -0.14 ± 0.045, C -0.046 ± 0.1, A -0.23 ± 0.068, N -0.09 ± 0.13, D -0.266 ± 0.13, I -0.315 ± 0.24, H -0.101 ± 0.18, L -0.139 ± 0.05
R45: F -0.502 ± 0.15, P 0.147 ± 0.097, C 0.016 ± 0.11, Y -0.428 ± 0.15, I -0.431 ± 0.23, Q 0.027 ± 0.091, M -0.057 ± 0.08, G -0.111 ± 0.056, D -0.219 ± 0.13, H -0.072 ± 0.11, A -0.001 ± 0.061, V -0.151 ± 0.053, E -0.003 ± 0.07, L -0.114 ± 0.048, N 0.108 ± 0.12, W -0.511 ± 0.088, K -0.023 ± 0.083
D66: T 0.173 ± 0.12, I 0.024 ± 0.094, R -0.02 ± 0.061, A -0.148 ± 0.071, W -0.155 ± 0.092, Y -0.095 ± 0.072, K 0.171 ± 0.067, H 0.122 ± 0.097, P -0.052 ± 0.17, Q 0.07 ± 0.07, V 0.018 ± 0.049, L 0.047 ± 0.049, E -0.003 ± 0.06, F -0.116 ± 0.073, C -0.241 ± 0.11, S -0.042 ± 0.065, M 0.051 ± 0.072
G64: L -0.018 ± 0.054, M -0.008 ± 0.068, S 0.035 ± 0.049, P -0.022 ± 0.077, D 0.207 ± 0.091, C 0.082 ± 0.082, V 0.196 ± 0.046, Y 0.181 ± 0.12, N 0.214 ± 0.095, A 0.146 ± 0.034, Q 0.165 ± 0.073, R 0.116 ± 0.047, K 0.048 ± 0.071, E 0.088 ± 0.06
P69: V 0.013 ± 0.086, F 0.035 ± 0.17, W 0.11 ± 0.48, G 0.392 ± 0.19, S 0.126 ± 0.083, Q -0.281 ± 0.35, K 0.411 ± 0.11, R 0.397 ± 0.18, I -0.556 ± 0.39, E 0.168 ± 0.31, C 0.071 ± 0.17, M -0.144 ± 0.14, H -0.049 ± 0.17, Y 0.162 ± 0.36, N -0.341 ± 0.38, L 0.189 ± 0.13, A -0.007 ± 0.091
P67: G 0.009 ± 0.048, H 0.024 ± 0.11, F -0.101 ± 0.083, S -0.067 ± 0.065, T -0.155 ± 0.078, R 0.118 ± 0.047, N -0.105 ± 0.23, A -0.098 ± 0.069, E -0.046 ± 0.084, K -0.069 ± 0.14, W -0.263 ± 0.07, C -0.417 ± 0.18, L 0.022 ± 0.056, V 0.091 ± 0.073, M -0.12 ± 0.09, D -0.43 ± 0.18
E50: D -0.232 ± 0.16
E54: V -0.068 ± 0.054, G -0.049 ± 0.044, L -0.13 ± 0.058, K 0.027 ± 0.076, T 0.212 ± 0.073, I 0.076 ± 0.095, P -0.346 ± 0.14, D 0.133 ± 0.082, S 0.107 ± 0.056, A -0.123 ± 0.059, Q -0.147 ± 0.076, Y -0.293 ± 0.065, W -0.299 ± 0.047, F -0.396 ± 0.12, H -0.161 ± 0.092, N -0.125 ± 0.09, C -0.161 ± 0.075
R60: T 0.322 ± 0.24
